Measurements published in patent US7842460B2, “Method for assessing proteolytic enzyme activity using ubiquitin fusion substrate” (Progenra Inc., priority 2004, dated 2010).

Legend:
[1] = biological target: T1, yeast ULP1 protein (SUMO protease catalytic domain) (Saccharomyces cerevisiae, UniProt Q02724); experiment: Cleavage of SUMO-GPATase by yeast ULP1 (SDS-PAGE); format: biochemical; details: 3 hours
T1 construct: treatment with the yeast ULP1 protein (SUMO protease catalytic domain)
T1 sequence (Q02724 432-621 limits assumed): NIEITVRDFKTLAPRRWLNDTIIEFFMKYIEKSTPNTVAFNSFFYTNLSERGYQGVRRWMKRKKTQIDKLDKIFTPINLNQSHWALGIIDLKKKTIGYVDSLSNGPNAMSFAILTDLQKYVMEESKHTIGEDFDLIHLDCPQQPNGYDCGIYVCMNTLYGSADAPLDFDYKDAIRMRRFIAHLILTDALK
Experimental: The SUMO protein was cleaved from a SUMO-GPATase fusion protein by treatment with the yeast ULP1 protein (SUMO protease catalytic domain). Approximately 5 μg SUMO-GPATase were incubated at 30° C. for 3 hours with increasing concentrations of the ULP1 enzyme in a reaction mixture containing 50 mM Tris-HCl pH 7.5, 1 mM EDTA, 10 mM DTT. The reaction was quenched by addition of SDS-PAGE sample buffer, heated, and loaded directly on a 12% SDS-polyacrylamide gel, and electrophoresed. After electrophoresis, the gel was stained to visualize the proteins. […] This inability of the ULP1 enzyme to cut the fusion protein may reflect the occurrence of steric hindrance around the cleavage site, or some partial modification of the junction sequence, e.g. oxidation of the Cysteine residue at the amino-terminal end of GPATase.

[2] = biological target: T2, ULP1 SUMO protease (Saccharomyces cerevisiae, UniProt Q02724); experiment: In vitro GPATase activity assay (coupled GDH assay) of fusion -/+ Ulp1; format: biochemical, yeast
T2 construct: treatment with the yeast ULP1 protein (SUMO protease catalytic domain)
T2 sequence (Q02724 432-621 limits assumed): T1 sequence (Q02724 432-621 limits assumed)
Description: GPATase, a glutaminase enzyme, hydrolizes 5-phospho ribosyl pyrophosphate (PRPP) […], 5-phosphoribosyl-(b)1-amine (PRA) and pyrophosphate (PPi). This glutaminase reaction was monitored by measuring the production of glutamate by means of a coupled glutamate dehydrogenase (GDH) assay under standard reaction conditions described by Messenger and Zalkin (1979).
[…]
The coupled GDH assay employed to assess GPATase activity was examined for accuracy. Increasing amounts of the purified SUMO-GPATase fusion protein, either untreated or cleaved by the ULP1 SUMO protease, were incubated in the presence of glutamine and PRPP for a fixed period of time, and the completed reaction was then used as substrate in a GDH assay. […] This is particularly so at enzyme concentrations of 1 μg or less. Thus, the amount of NAD^+ reduced in the GDH reaction directly correlates with the amount of active GPATase enzyme in the initial reaction. In addition, treatment with ULP1 results in at least a 10-fold increase in the glutaminase activity of GPATase, despite the fact that only partial cleavage of SUMO-GPATase has been observed thus far.

amount of Ulp1 at which cleavage of the fusion was demonstrated ([1]; approx. 5 μg SUMO-GPATase, 30° C.): 0.009 units
completeness of cleavage ([1]; with as much as 78.3 Units Ulp1, 30° C.): cleavage was never fully achieved
B1: SUMO-GPATase: Fusion of SUMO (Smt3) C-terminal Gly-Gly to mature E. coli glutamine phosphoribosylpyrophosphate amidotransferase N-terminus (protein)
chain: CGIVGIAGVMPVNQSIYDALTVLQHRGQDAAGIITIDANNCFRLRKANGLVSDVFEARHMQRLQGNMGIGHVRYPTAGSSSASEAQPFYVNSPYGITLAHNGNLTNAHELRKKLFEEKRRHINTTSDSEILLNIFASELDNFRHYPLEADNIFAAIAATNRLIRGAYACVAMIIGHGMVAFRDPNGIRPLVLGKRDIDENRTEYMVASESVALDTLGFDFLRDVAPGEAIYITEEGQLFTRQCADNPVSNPCLFEYVYFARPDSFIDKISVYSARVNMGTKLGEKIAREWEDLDIDVVIPIPETSCDIALEIARILGKPYRQGFVKNRYVGRTFIMPGQQLRRKSVRRKLNANRAEFRDKNVLLVDDSIVRGTTSEQIIEMAREAGAKKVYLASAAPEIRFPNVYGIDMPSATELIAHGREVDEIRQIIGADGLIFQDLNDLIDAVRAENPDIQQFECSVFNGVYVTKDVDQGYLDFLDTLRNDDAKAVQRQNEVENLEMHNEG
modifications: left off: large carriers
notes: Fusion of SUMO (Smt3) C-terminal Gly-Gly to mature E. coli glutamine phosphoribosylpyrophosphate amidotransferase N-terminus
increase in the glutaminase activity of GPATase on treatment with ULP1 ([2]; ULP1-cleaved vs untreated fusion, only partial cleavage): ≥ 10 fold
absorbance at OD 363 in GDH assay (GPATase activity) ([2]; absence of Ulp1): this increase of absorbance did not occur
absorbance at OD 363 in GDH assay (GPATase activity) ([2]; fusion incubated 30 minutes with Ulp1): an increase is absorbance
